According to US20060281673A1, “Novel peptide inhibitor of hiv fusion that disrupts the internal trimeric coiled-coil of gp41” (priority 2003, published 2006):

Legend:
N36^Mut(e,g) = assay: cell-based or functional assay
[1] = molecular target: pre-hairpin intermediate of gp41 (HIV-1 Env on effector cells) (HIV-1), P03377; assay: cell-based or functional assay

Row | Binder | α: factor relating the homotrimerization association constant of L to Kref^trimer, fitted to the fusion inhibition data at λMT=1.5×10^-4 M (N36^Mut(e,g)) | α: factor relating the homotrimerization association constant of L to Kref^trimer, fitted to the fusion inhibition data at λMT=1.5×10^-5 M (N36^Mut(e,g)) | IC50, inhibition of HIV Env-mediated cell fusion (vaccinia virus-based reporter gene assay) [1] [nM] | fold activity in inhibiting fusion relative to N36 [1] [fold] | β: factor relating the heterotrimerization association constant of M and L to Kref^trimer, fitted to the fusion inhibition data at λMT=1.5×10^-4 M [1] | β: factor relating the heterotrimerization association constant of M and L to Kref^trimer, fitted to the fusion inhibition data at λMT=1.5×10^-5 M [1] | inhibition of HIV Env-mediated cell fusion (vaccinia virus-based reporter gene assay) [1] [mM]
1 | SGIDQEQNNLTRLIEAQIHELQLTQWKIKQLLARIL (modifications not checked) [N36^Mut(e,g)] | 0.34 | 1.07 | 308 | 50 | 5.76 | 2.97 | –
2 | SGIVQQLNNQLRAEEANQHLEQLSVWGSKQNQARRL (modifications not checked) [N36^Mut(a,d)] | – | – | – | – | – | – | > 0.1
